Data as given in IntAct's records for PubMed 22495310.

B1: CREB-regulated transcription coactivator 2 (Mus musculus), Q3U182 (parent)
chain: MATSGANGPGSATASASNPRKFSEKIALQKQRQAEETAAFEEVMMDIGSTRLQAQKLRLAYTRSSHYGGSLPNVNQIGCGLAEFQSPLHSPLDSSRSTRHHGLVERVQRDARRMVSPLRRYPRHIDSSPYSPAYLSPPPESGWRRMMPWGNLPAEKGQLFRLPSALNRTSSDSALHTSVMNPNPQDTYPGPTPPSVLPSRRGGGFLDGEMDAKVPAIEENVVDDKHLLKPWDAKKLSSSSSRPRSCEVPGINIFPSPDQPANVPVLPPAMNTGGSLPDLTNLHFPPPLPTPLDPEETVYPSLSGGNSTTNLTHTMTHLGISGGLGLGPSYDVPGLHSPLSHPSLQSSLSNPNLQASLSSPQPQLQGSHSHPSLPASSLAHHALPTTSLGHPSLSAPALSSSSSSSSTSSPVLSAPPYPASTPGASPRHRRVPLSPLSLPAGPADARRSQQQLPKQFSPTMSPTLSSITQGVPLDTSKLPTDQRLPPYPYSPPSLVIPTHPPTPKSLQQLPSQACLVQPSGGQPPGRQPHYGALYPPGSSGHGQQPYHRPINDFSLGNLEQFNMESPSTSLVLDPPAFSEGPGFLGSEGSMSGPQDPHVLNHQNLTHCSRHGSGPNIILTGDSSPGFSKEIAAALAGVPGFEVSASGLELGLGLEDELRMEPLGLEGLTMLSDPCALLPDPAVEDSFRSDRLQ

Variants of: B1
Conditions: with pp2ba_mouse Ppp3ca

| effect of a mutation on the interaction | Variant |
| --- | --- |
| decreasing interaction strength | P614G;I616A;L618A;T619A |
